From article PMC7280309 (Nature Communications, 2020)

B2: DotZ (natural protein)
chain: MDEIKKDDELSQWLSTYGTITAERILGRYNISLPQDEILEAINIPSSFYRHLLQIPLKNVLNGIVIQQASDYHVYAQKLLIDYLLSGESSKEPDSQGAGTRESLEDERQRLVQLGDEFHKLELEQDNLIASSQASLMKISIDWNTKLETTLSKLNSLYKNTNSKIKKNAIRKALIKAFIHCDLVKDQSQKNKYQLIDKLNQTLAVSVGAELKESILTNLSELFQILEALNTKLDEFTDRTNHLSQQAKSFRTQFYEVILRIIELIKLLPEYKIDPAQDAINREPLYFDRTIGER
B3: DotY (natural protein)
chain: MPKYTLPTRDALLKAMQVGETSIEAAEYMATRFEQILTKAKLLPECNDMLEKIKEYAQFVKFKLLSSAQVWSGQERPTSDYQNTQENKAEFLASHLEGLPSGLKLEVAIGDDAKILRGFSSNGKMVEGDQLKTMDGLLEGWLAKNSLAISGGAVVKIDNTGNQTKVDPQEIRQLINDSEKGVAKYFADKGVGMEVAQRTYQEPKALETKREEIRQEIESGAEAPTTQSIR

Columns and labels:
DotY = molecular target: B3; assay: cryo-EM structure; details: both partners purified
DotZ = molecular target: B2; assay: cryo-EM structure; details: both partners purified
[1] = molecular target: T1, DotL with a C-terminal Strep-tag (Legionella pneumophila, UniProt Q5ZYC6 1-783); assay: affinity purification with mass spectrometry; details: partners not purified
T1 sequence: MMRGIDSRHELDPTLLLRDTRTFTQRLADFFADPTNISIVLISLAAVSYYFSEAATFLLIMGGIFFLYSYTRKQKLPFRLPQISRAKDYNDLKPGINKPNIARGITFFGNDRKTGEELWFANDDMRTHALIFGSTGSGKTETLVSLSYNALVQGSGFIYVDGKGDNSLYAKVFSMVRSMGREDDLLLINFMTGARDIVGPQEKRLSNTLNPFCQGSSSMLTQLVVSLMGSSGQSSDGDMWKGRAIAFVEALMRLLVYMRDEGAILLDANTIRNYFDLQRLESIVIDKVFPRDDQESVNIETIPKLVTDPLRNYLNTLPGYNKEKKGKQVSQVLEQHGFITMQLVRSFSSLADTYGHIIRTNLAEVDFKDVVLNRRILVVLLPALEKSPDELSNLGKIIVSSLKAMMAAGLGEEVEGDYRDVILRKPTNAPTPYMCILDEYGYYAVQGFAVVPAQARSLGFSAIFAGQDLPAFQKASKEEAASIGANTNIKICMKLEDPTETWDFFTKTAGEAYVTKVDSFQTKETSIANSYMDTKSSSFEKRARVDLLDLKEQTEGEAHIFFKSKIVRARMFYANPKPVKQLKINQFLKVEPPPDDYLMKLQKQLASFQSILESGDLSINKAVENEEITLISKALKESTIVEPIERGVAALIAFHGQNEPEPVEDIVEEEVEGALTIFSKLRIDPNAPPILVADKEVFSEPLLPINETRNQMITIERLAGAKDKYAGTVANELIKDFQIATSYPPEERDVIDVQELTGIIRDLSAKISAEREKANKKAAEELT

B1: DotN (natural protein)
chain: MNVNQTMADNQQRCELKLIASPGSWRLYSARKIDERFKSYEQKIFQRDRYTCQFCGFQARLYQDIVNLDGDYTNNRLSNLVTACCFCAQCFFVESVGVGGYGGGTLIYLPELTQAELNSLCHVLFCAITNDTGYKSSAQNIYRSFKFRSQIVEEKFGEGTSDPAIFGQLMIDSGVNSEEIREKLFKNIRLLPSRAKFRKQIEKWAASALEEIAD
Does B1 bind (DotY)?
Result: binds

Does B1 bind (DotZ)?
Result: binds

Does B1 bind [1]?
Result: binds

Does B2 bind [1]?
Result: binds

Does B3 bind (DotZ)?
Result: binds
